Laboratory results published in patent US12618845B2, “Methods and compositions for protein sequencing” (Quantum-Si Incorporated, priority 2018, dated 2026).
Where two headings read alike, the source gives them in different places.

System: peptide substrates
Type: biochemical

B1: PfuTET: Pfu aminopeptidase I (protein)
chain: MVDWELMKKIIESPGVSGYEHLGIRDLVVDILKDVADEVKIDKLGNVIAHFKGSAPKVMVAAHMDKIGLMVNHIDKDGYLRVVPIGGVLPETLIAQKIRFFTEKGERYGVVGVLPPHLRREAKDQGGKIDWDSIIVDVGASSREEAEEMGFRIGTIGEFAPNFTRLSEHRFATPYLDDRICLYAMIEAARQLGEHEADIYIVASVQEEIGLRGARVASFAIDPEVGIAMDVTFAKQPNDKGKIVPELGKGPVMDVGPNINPKLRQFADEVAKKYEIPLQVEPSPRPTGTDANVMQINREGVATAVLSIPIRYMHSQVELADARDVDNTIKLAKALLEELKPMDFTPLE
HPLC Assay Conv (substrate AAPFQQ (SEQ ID NO: 118), 1 mM Peptide, 1 μM enzyme, 10 mM Mg(OAc)2, 50 mM MOPS pH 8, 60 mM KOAc, RT/0.5 hr): 100%
HPLC Assay Conv (substrate CCPFQQ (SEQ ID NO: 144), 1 mM Peptide, 1 μM enzyme, 10 mM Mg(OAc)2, 50 mM MOPS pH 8, 60 mM KOAc, RT/0.5 hr): 72%
HPLC Assay Conv (substrate DDPFQQ (SEQ ID NO: 126), 1 mM Peptide, 1 μM enzyme, 10 mM Mg(OAc)2, 50 mM MOPS pH 8, 60 mM KOAc, RT/0.5 hr): 86%
HPLC Assay Conv (substrate EEPFQQ (SEQ ID NO: 128), 1 mM Peptide, 1 uM enzyme, 10 mM Mg(OAc)2, 50 mM MOPS pH 8, 60 mM KOAc, RT/0.5 hr): 93%
HPLC Assay Conv (substrate FFPFQQ (SEQ ID NO: 124), 1 mM Peptide, 1 μM enzyme, 10 mM Mg(OAc)2, 50 mM MOPS pH 8, 60 mM KOAc, RT/0.5 hr): 65%
HPLC Assay Conv (substrate GGPFQQ (SEQ ID NO: 152), 1 mM Peptide, 1 uM enzyme, 10 mM Mg(OAc)2, 50 mM MOPS pH 8, 60 mM KOAc, RT/0.5 hr): 0%
HPLC Assay Conv (substrate HHPFQQ (SEQ ID NO: 154), 1 mM Peptide, 1 uM enzyme, 10 mM Mg(OAc)2, 50 mM MOPS pH 8, 60 mM KOAc, RT/0.5 hr): 19%
HPLC Assay Conv (substrate IIPFQQ (SEQ ID NO: 136), 1 mM Peptide, 1 μM enzyme, 10 mM Mg(OAc)2, 50 mM MOPS pH 8, 60 mM KOAc, RT/0.5 hr): 0%
HPLC Assay Conv (substrate KKPFQQ (SEQ ID NO: 120), 1 mM Peptide, 1 uM enzyme, 10 mM Mg(OAc)2, 50 mM MOPS pH 8, 60 mM KOAc, RT/0.5 hr): 100%
HPLC Assay Conv (substrate LLPFQQ (SEQ ID NO: 138), 1 mM Peptide, 1 μM enzyme, 10 mM Mg(OAc)2, 50 mM MOPS pH 8, 60 mM KOAc, RT/0.5 hr): 99%
HPLC Assay Conv (substrate MMPFQQ (SEQ ID NO: 148), 1 mM Peptide, 1 uM enzyme, 10 mM Mg(OAc)2, 50 mM MOPS pH 8, 60 mM KOAc, RT/0.5 hr): 100%
HPLC Assay Conv (substrate NNPFQQ (SEQ ID NO: 130), 1 mM Peptide, 1 μM enzyme, 10 mM Mg(OAc)2, 50 mM MOPS pH 8, 60 mM KOAc, RT/0.5 hr): 81%
HPLC Assay Conv (substrate PPPFQQ (SEQ ID NO: 150), 1 mM Peptide, 1 uM enzyme, 10 mM Mg(OAc)2, 50 mM MOPS pH 8, 60 mM KOAc, RT/0.5 hr): 0%
HPLC Assay Conv (substrate QQPFQQ (SEQ ID NO: 132), 1 mM Peptide, 1 μM enzyme, 10 mM Mg(OAc)2, 50 mM MOPS pH 8, 60 mM KOAc, RT/0.5 hr): 100%
HPLC Assay Conv (substrate RRPFQQ (SEQ ID NO: 116), 1 mM Peptide, 1 uM enzyme, 10 mM Mg(OAc)2, 50 mM MOPS pH 8, 60 mM KOAc, RT/0.5 hr): 100%
HPLC Assay Conv (substrate SSPFQQ (SEQ ID NO: 140), 1 mM Peptide, 1 μM enzyme, 10 mM Mg(OAc)2, 50 mM MOPS pH 8, 60 mM KOAc, RT/0.5 hr): 90%
HPLC Assay Conv (substrate TTPFQQ (SEQ ID NO: 142), 1 mM Peptide, 1 μM enzyme, 10 mM Mg(OAc)2, 50 mM MOPS pH 8, 60 mM KOAc, RT/0.5 hr): 100%
HPLC Assay Conv (substrate VVPFQQ (SEQ ID NO: 134), 1 mM Peptide, 1 μM enzyme, 10 mM Mg(OAc)2, 50 mM MOPS pH 8, 60 mM KOAc, RT/0.5 hr): 0%
HPLC Assay Conv (substrate WWPFQQ (SEQ ID NO: 146), 1 mM Peptide, 1 μM enzyme, 10 mM Mg(OAc)2, 50 mM MOPS pH 8, 60 mM KOAc, RT/0.5 hr): 37%
HPLC Assay Conv (substrate YYPFQQ (SEQ ID NO: 122), 1 mM Peptide, 1 μM enzyme, 10 mM Mg(OAc)2, 50 mM MOPS pH 8, 60 mM KOAc, RT/0.5 hr): 100%

B2: Rat APN (protein)
chain: KPWNQYRLPKTLIPDSYQVTLRPYLTPNEQGLYIFKGSSTVRFTCNETTNVIIIHSKKLNYTNKGNHRVALRALGDTPAPNIDTTELVERTEYLVVHLQGSLVKGHQYEMDSEFQGELADDLAGFYRSEYMEGGNKKVVATTQMQAADARKSFPCFDEPAMKASFNITLIHPNNLTALSNMLPKDSRTLQEDPSWNVTEFHPTPKMSTYLLAYIVSEFKYVEAVSPNRVQIRIWARPSAIDEGHGDYALQVTGPILNFFAQHYNTAYPLEKSDQIALPDFNAGAMENWGLVTYRESALVFDPQSSSISNKERVVTVIAHELAHQWFGNLVTVDWWNDLWLNEGFASYVEFLGADYAEPTWNLKDLIVLNDVYRVMAVDALASSHPLSSPANEVNTPAQISELFDSITYSKGASVLRMLSSFLTEDLFKKGLSSYLHTFQYSNTIYLDLWEHLQQAVDSQTAIKLPASVSTIMDRWILQMGFPVITVNTSTGEIYQEHFLLDPTSKPTRPSDFNYLWIVPIPYLKNGKEDHYWLETEKNQSAEFQTSSNEWLLLNINVTGYYQVNYDENNWRKIQNQLQTDLSVIPVINRAQIIHDSFNLASAGKLSITLPLSNTLFLASETEYMPWEAALSSLNYFKLMFDRSEVYGPMKRYLKKQVTPLFAYFKIKTNNWLDRPPTLMEQYNEINAISTACSSGLEECRDLVVGLYSQWMNNSDNNPIHPNLRSTVYCNAIAFGGEEEWNFAWEQFRKATLVNEADKLRSALACSNEVWILNRYLSYTLNPDYIRKQDATSTIVSIANNVVGQTLVWDFVRSNWKKLFEDYGGGSFSFANLIQGVTRRFSSEFELQQLEQFKEDNSATGFGSGTRALEQALEKTKANIKWVKENKDVVLKWFTENS
HPLC Assay Conv (substrate AAPAAP{LYSN3}NH2 (SEQ ID NO: 98), 1 mM peptide, 50 nM enzyme, 2.5 mM ZnCl2, 25 mM Tris pH 8.0, 30° C./1 hr): 100%
HPLC Assay Conv (substrate KKMKKMLys-Triazole-PEG4 Biotin (SEQ ID NO: 89), 1 mM peptide, 150 nM enzyme, 2.5 mM ZnCl2 25 mM Tris pH 8.0, 30° C./1 hr): >90%
HPLC Assay Conv (substrate KKMKKM{LYSN3}NH2 (SEQ ID NO: 71), 1 mM peptide, 50 nM enzyme, 2.5 mM ZnCl2, 25 mM Tris pH 8.0, 30° C./1 hr): 50%
HPLC Assay Conv (substrate KKPKKP{LYSN3}NH2 (SEQ ID NO: 100), 1 mM peptide, 50 nM enzyme, 2.5 mM ZnCl2, 25 mM Tris pH 8.0, 30° C./1 hr): 85%
HPLC Assay Conv (substrate QP5-Atto649N ([…]{LYSN3}NH2) (SEQ ID NO: 106), 37 μM Peptide, 100 nM Enzyme, 2.5 mM ZnCl2, 25 mM Tris pH 8.0, 37° C./0.5 hr): >95%
HPLC Assay Conv (substrate RRPRRP{LYSN3}NH2 (SEQ ID NO: 96), 1 mM peptide, 50 nM enzyme, 2.5 mM ZnCl2, 25 mM Tris pH 8.0, 30° C./1 hr): 55%
